Experimental data taken from the supplement of paper PMC12636428.

Test system: Saccharomyces cerevisiae
Assay: transcriptional activation domain activity (GFP:mCherry ratio, weighted mean of sorted bins, harmonized to initial dataset scale) (arbitrary fluorescence ratio units); higher = stronger transcriptional activation
Settings: beta-estradiol 1 µM; induction time 4 h
Procedure, shortened: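 Yeast diploids with a GFP reporter received barcoded protein tiles, fused to an estradiol-inducible synthetic transcription factor, at the URA3 locus. Cultures were diluted 1:5 into SC holding 1 uM beta-estradiol, incubated 4 hours at 30 °C, sorted into 8 bins on GFP:mCherry ratio, and sequenced for barcodes, with tiles under 50 reads discarded. Activation activity values come from the read-weighted mean of bin median fluorescence, averaged across barcodes and linearly placed on the initial dataset scale.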

Sequence | transcriptional activation domain activity
SLHFNLGELRRTLLPFMWLTLKLSFFLWIFGRHAASNKRVVLCILALLCVLWE | 64800
SLHKIHLVYRDVLRDKLRASVGCSRIRKILRSPPLYPTWMRCLFAFICASIIC | 57600
SLHLAGCMLITCIGFIVLACLDVSQHIGAGYFCCFLLCCGGYISSPLLSTWYN | 94700
SLHLCFSMCLTMIGYIILIKIDTLEHKAVAYFACFLLTSGAFAPSCLFHSWHN | 33300
SLIGIGITILQQLSEISFLPMTTFNISRCLWRLSLLTILACVNFGPSIYIFWF | 51500
SLILVTYNTSHIACFYLLPQPHYFHLTSFLFLSIFFFLFSSLEHGSSFLAFFH | 52500
SLISFRLLGEVATGIKYLVCYDMPNMSRIEVELAKRLYCLILCGLCTWSIYGR | 79500
SLLAKCDNGDVLKLQEAIEEDDAAREERERAERAAAALKREKEGSASRVLVTG | 38800
SLLEELTMRLLETDESHIKKIKDLSRFVNMIILRLFATGRRMSIFRSLFALLL | 62600
SLLLNDFSELRNGYFTSLFSLSLFLFLFAMPWTLTDITPFLMVLLFYHILFFI | 69600
SLLLPQQPVFVSENVGSEFSSLNEFLSMLENPLLTQTSLSSSSASNVHLENGS | 98100
SLLMLLFIRGWFSYLIAVVSISGVLVLHMLYFLLQWRLKYILWLLLHCSIAIP | 79500
SLLPSPPQAVIFLVLFFSFLLLALFGYLFYFPLIPFLKTSIPIFSTYYSFFFM | 24300
SLLQHLAEYFICFDSVVSFLLTLVVNVFRLTSFGIIRLVGWRPVVFFFFPSIY | 50900
SLLQSLPFPLQFLTLCFNSHLLIVIVVIIGCILESIYVGTFLWMLLRVCRWQG | 66500
SLLVLCECLLMTIGVVFTTPHVDFIYRCVNTVTPTTMVYFVVCVLFNHLVILL | 73100
SLLVWEFCLRHPEVRDVCDLGQMIFWNNKGAFYFTAFMFILNNTFIQGLHCLV | 72600
SLNIDSMLDDYVSSDLLLNDDDDDTNLSRRRFSDVITNQFPSMTNSRNSISHS | 52600
SLNVLACGAIILFPRLAFLVVNNNAIVLGLRVMFVKFVFVCLLALWCFAGFLL | 69300
SLPFHCTLLLVVINLIAVVAILWTRFASKLLGSSVCAFLYIFVGTFTILIHVR | 20500
SLPLPDTLPFPLPDSLHLPLTDDFSLTLQDALPFLYMDSLPFPLPMPFLFYFW | 69600

Sequence | transcriptional activation domain activity
SLPPPRFSPMFSFSLMSYLRCFDYYVCFFFSLFCFFSPALLVEGVVTFFSFIH | 60100
SLPSTTPAGAPPTDAAKPAGGLFGNTSAQASTGSSGLFGNAAKPATTSASSAQ | 16100
SLPVSKGVWGSVGRVILLIFTAKPLEFCIQLTLVDFVEVDAHTMRVIHCRKVR | 28100
SLPYFLYICDWYLCNSFLYLSSILSFHCVYLCCFASIITLWFPAFFLTVILSI | 51500
SLQEIDKMRVDGKFVDSEGIGRRPICVSSSILKQVLLYLLRRCYGLIYRLLSS | 33800
SLQLLYFMPVRYYTYHKRGYHYFLADLCYFVNVLLLLSIWIFPNSRRLMISTY | 65100
SLRLLLTVLAGYPIAIVYRLIFLNKTSTIIGASARNWFCLVAGLSLSYYFNSF | 70800
SLRVDTSVTCCKLRSFSHIVTSYIEVLFLLKILREFLYADLFVHIWLALSLLA | 62700
SLSFTPPHSNPPSPSFLLPFPLPFLLPFPPLSFPFPPPFAFPFTPFPPFPFSP | 38700
SLSRIVGRGGAQINQIKEDTEVESLDVNQEGEGDSATVTLKGTKTAVAAAKKA | 21900
SLSRKKRGRGRPKGSKNKKSGDGAASSAAPSGDATGKRKRGRPPKEKPAEATA | 44300
SLSSSRVLGEHGNGPDGEGGFVHVSYRISLDEENELQMRVRPSERGGGEGVDG | 39200
SLSTFVYTFLRFHFYFFAFFLVALTFSFFLLFCSLFVCPVGIIFLYFFIFFVL | 52100
SLSVVLLHMRHRRLLFSVVMILFIFWMLYVGHCMLYVLLLLRVLLLSLHLWIV | 31700
SLTHGMPQDLRRAVRNGVRLASAEDQERYFTFILHEAVRLYGVLMMRIVYRLF | 55300
SLTQLIWYLLRRRPFTVLQLNHLFGLPDPLRILHLASSRRLWNAIPVITIATL | 54600
SLTREFNDIGLLTELHYVQGIETLIKIGTRFSMVAALVVYRNFRWHLSSAIPP | 48200
SLVAATATAVEAEPPQPVKRPRGRPKKDATVASSPKPARATKAKAKAKAAVPP | 24700
SLVDFHKFFKWLLLKVVKGLNKLRNLHNERPKELQTNEMEHLLNLMKIVRFFA | 46500
SLVLPCLSSYHYRFIDDYHVLHAQVKLMQGVLWWSMVQNITVYLLFLLLFLFA | 25200
SLVLQTVFLYMVERVDICIDYLKVHRRFREAEVYLLRFQQCMTRAMTLIKMYF | 75700

Sequence | transcriptional activation domain activity
SLWCLVIFPCSLVFLGLVGPVLSWFFLSFLFSWLIGRLVLYLILFLLFVTDWA | 22000
SLYLCLGMLYLRKNPLLKEPLTLEHIKARLLGHWGSDAGQIFTYIHFNRLIKK | 69300
SLYRVWDCKSTMLAFSKYIPQIHSPSALEYALVSMGSDFVLFLLRRIFEILKK | 55500
SMDQIREYNTRLQLVNAQSFDYTDNPYSFNVGINQDSAVFDLMTSPFTQEEVL | 112000
SMGENLFDVFRARVILTWYYWTHARWCDVYMSSVISLRLAVTCGLNGCPPFQT | 75000
SMHCGVVPCCFFVCLCLISFVYLEISIIFLGHSFFLSLSFFYIMNLFYTWWVS | 25200
SMLEQQESTSAARAEGQRGGAVQEGDIELVDAACVQLASRISPKSLLQRPMVD | 31900
SMLKIARQSPRGIRDSKGGEGFLLLESGDQSTNIVTVVRIKLLMEKLYTLPEL | 32200
SMLNGFAGLDDIPMENILRFLNRFVVNNLLLDILCQCSRHARRTLAGNIFRAA | 47000
SMLSYHLWMVMHAETSVESQDFHIYRKVAKRRGETFTNSYDLGKIRNLELFFN | 61200
SMNYISITAPIYDRGPDSTCLLGSTVCSYFDYDTWTLSLTLWVLIQLTWSMFL | 60800
SMRAPLFTELGLLPLRFRRLILALRYLSYLITLPHEHYASAALQDAFDLYSQG | 24100
SMRDSASDQETSWELQMFKTENVPESTTLPAVDNNNLFDAVASPLADPLCDDI | 53300
SNAAWGVMITFFQIIGLFDKYPIYWDSRLGDVVKAVSITILNTDYINLQCAYG | 73900
SNARGSDPSSYAIEGEYKTLATDDLGNILNLNYGETNEVIMNEINDLNLPLGP | 112000
SNASLSAQHPLGIDEEDLSSKPRCQRCRKSKKGCDRQRPCGRCKDAGIGIEGC | 35300
SNDGEDENGDGVSNEKSGRKKGKGRRKRGKDQAQVKGDQEPQDGEAGGEGGAE | 21600
SNDSSDEEDRKSRRKSKKKAKDRDASKERSKKDDKGKKKSRTSKGRSRKDEDS | 18600
SNEGFDYDVELKKKNIGLILAFKEHECDSDQLVAYLVYQRMKRIVWLHKLCVV | 64600
SNFASKVNTQLNLLQHSSSNSNFLDASPYDFNKIFMNNFENYDYETDEGYAED | 63600
SNGKEMAFQYYSFVKEWGHVLGRYPGEIERCLIGTLGNIFFSGVKPIANSYFL | 45400

Sequence | transcriptional activation domain activity
SNGTNNSGNMNTNADYESFFNTGTNNSNSNQNPYFLSSRNNSLKFNPEDFDFQ | 59100
SNGTSLFVTCWVALNVFFHFYRLPLRWDFFFVFADRAGLIFIVNLPLLYLLAA | 59500
SNHGLIYSKPLAWEWNCIIDSIENSLVGYCMEQIFVVHVSRLLLLQWSITQIF | 56000
SNHNNDNDNSNNGDGNNNNTISELVCFDESIADLYPVEIDSPYLITLAYLDKL | 71900
SNKRNKDENRGRSRTRSASRGRSRSASVFSDARSRSRARSRSRAATMAKAGAA | 36300
SNKRPSSGPARGGRNNGGRGNNQNANNNRGGRRGRGGAKESGAPNGQKKAGAP | 9410
SNPKELFFIRILLDLSWIDMRVAICSLRPILGEEPRKFREMLLVLPTLCSEIY | 66100
SNPLTSQANRMSSYDKKTNVLGFDDGTFDNKVFNRTNFEEKAPFDIPLDEFFT | 119000
SNRGSGGGGRATGAHSRRGRGSGDRGGRSSARSRSKSPGAEVAEAGEPAPAVP | 17900
SNRLFVGLPLCRDPEYLKFSVNHTMRVFMSGRMISVLTPVLRPILAPLLCSRK | 49600
SNTLSLALYTLIEHIGMQRLEYANNSLVMLLKLIHNIILSLKNLRLFFNFFVT | 41900
SNVFPTQLLARHQKEIKRFKRMLAIVRWFEVCFALLRIKYLMKLFWFSVEFCN | 50000
SNYCWQMSVLPRARISIFRAEVKERCVVTVALLFSVYDPIAIVDLVKKLETDF | 27500
SNYSNLATRAPSGPPQFLVNNVIQHWGGVDGWIKWILKIRKAYILRRDVFLAT | 56800
SPAPSFRGKSKAEEERERAVLDITDRVSKLLRKTQLQVRVIVECIHCKSPKHL | 33300
SPDDFDQTLPLDLSDENITEVAYLPENQHSVLSSTGISNEHTKLFLILNEIIS | 63000
SPDQDPHRPKVESGGEEQEQLGPPKKKRRRQALNCTECKRRKIRCDRSQPCGP | 18300
SPENVSLAAVTGVYGLGLNPWPTFDYNMLGLDPLVTPFFTTFNFFLGTLFTLP | 74100
SPFASAGQTGQSPFGGLNKASSPAFAGTGSGSTFGQASTLGGAFGKPAEPAAT | 32400
SPKKAAAPKKPAAKKATEAKKASVKPKAAKETKEKKEAKPKAAKAAKPAAAAP | 28100
